{"source": "patent US20020110800A1", "about": "“Use of SHP-1 and SHP-2 to detect compounds involved in neuronal survival” (McGill University, priority 1997, published 2002)", "tested_on": "SHP-2", "assay": "BDNF-stimulated association of SHP-2 with tyrosine-phosphorylated proteins in cortical neurons", "format": "cell-based, rat", "from_the_text": "FIG. 5 is a Western blot showing that BDNF stimulates the association of SHP-2 with tyrosine phosphorylated proteins in cortical neurons. Lysates prepared from cortical neurons treated with or without BDNF were immunoprecipitated with anti-SHP-2 antibody and probed with anti-pTyr antibody.\nTo determine the mechanism whereby the neutrotrophins stimulate the survival and growth of normal and injured neurons, we have asked whether the phosphoprotein phosphatases SHP-1 and SHP-2 play a role in the differentiation and survival of primary neurons, focusing our studies on cultured rat sympathetic cervical ganglion (SCG) and cortical neurons in order to determine the exact nature of this regulation.\nImmunoprecipitations and immunoblotting were performed as previously described (Kaplan et al., Science, 252:554-558, 1991). […]"}
{"molecule": "BDNF: brain-derived neurotrophic factor, a neurotrophin, obtained from Peprotech (protein, UniProt P23560 19-247, looked up) Neurotrophic factor BDNF …: APMKEANIRGQGGLAYPGVRTHGTLESVNGPKAGSRGLTSLADTFEHVIEELLDEDQKVRPNEENNKDADLYTSRVMLSSQVPLEPPLLFLLEEYKNYLDAANMSMRVRRHSDPARRGELSVCDSISEWVTAADKKTAVDMSGGTVTVLEKVPVSKGQLKQYFYETKCNPMGYTKEGCRGIDKRHWNSQCRTTQSYVRALTMDSKKRIGWRFIRIDTSCVCTLTIKRGR", "values": [{"measurement": "association of tyrosine-phosphorylated proteins with SHP-2", "result": "causes the association of tyrosine-phosphorylated proteins with SHP-2"}]}
